Legend:
[1] = molecular target: human proBNP(1-108), recombinant, produced in E. coli (non-glycosylated) (human) (UniProt P16860); experiment: sandwich ELISA, hinge 76 capture, peroxidase-mAb detection; proBNP(1-108) 2,500 pg/ml
human BNP(1-32) (human) [2] = experiment: sandwich ELISA, L21016 capture, mAb detection; BNP(1-32) 1,250 pg/ml
[3] = molecular target: human proBNP(1-108), recombinant, produced in E. coli (non-glycosylated) (human) (UniProt P16860); experiment: sandwich ELISA, hinge 76 capture, peroxidase-mAb detection; proBNP(1-108) 312.5 pg/ml
human BNP(1-32) (human) [4] = experiment: sandwich ELISA, L21016 capture, mAb detection; BNP(1-32) 78 pg/ml
human BNP(1-32) (human) [5] = experiment: sandwich ELISA, L21016 capture, mAb detection; BNP(1-32) 5,000 pg/ml
[6] = molecular target: human proBNP(1-108), recombinant, produced in E. coli (non-glycosylated) (human) (UniProt P16860); experiment: sandwich ELISA, hinge 76 capture, peroxidase-mAb detection; proBNP(1-108) 156.25 pg/ml
[7] = molecular target: human proBNP(1-108), recombinant, produced in E. coli (non-glycosylated) (human) (UniProt P16860); experiment: sandwich ELISA, hinge 76 capture, peroxidase-mAb detection; proBNP(1-108) 0 pg/ml (blank)
human BNP(1-32) (human) [8] = experiment: sandwich ELISA, L21016 capture, mAb detection; BNP(1-32) 156.25 pg/ml
human BNP(1-32) (human) [9] = experiment: sandwich ELISA, L21016 capture, mAb detection; BNP(1-32) 10,000 pg/ml
[10] = molecular target: human proBNP(1-108), recombinant, produced in E. coli (non-glycosylated) (human) (UniProt P16860); experiment: sandwich ELISA, hinge 76 capture, peroxidase-mAb detection; proBNP(1-108) 39 pg/ml
[11] = molecular target: human proBNP(1-108), recombinant, produced in E. coli (non-glycosylated) (human) (UniProt P16860); experiment: sandwich ELISA, hinge 76 capture, peroxidase-mAb detection; proBNP(1-108) 20 pg/ml
human BNP(1-32) (human) [12] = experiment: sandwich ELISA, L21016 capture, mAb detection; BNP(1-32) 39 pg/ml
human BNP(1-32) (human) [13] = experiment: sandwich ELISA, L21016 capture, mAb detection; BNP(1-32) 2,500 pg/ml
[14] = molecular target: human proBNP(1-108), recombinant, produced in E. coli (non-glycosylated) (human) (UniProt P16860); experiment: sandwich ELISA, hinge 76 capture, peroxidase-mAb detection; proBNP(1-108) 10,000 pg/ml
[15] = molecular target: human proBNP(1-108), recombinant, produced in E. coli (non-glycosylated) (human) (UniProt P16860); experiment: sandwich ELISA, hinge 76 capture, peroxidase-mAb detection; proBNP(1-108) 625 pg/ml
[16] = molecular target: human proBNP(1-108), recombinant, produced in E. coli (non-glycosylated) (human) (UniProt P16860); experiment: sandwich ELISA, hinge 76 capture, peroxidase-mAb detection; proBNP(1-108) 78 pg/ml
human BNP(1-32) (human) [17] = experiment: sandwich ELISA, L21016 capture, mAb detection; BNP(1-32) 625 pg/ml
[18] = molecular target: human proBNP(1-108), recombinant, produced in E. coli (non-glycosylated) (human) (UniProt P16860); experiment: sandwich ELISA, hinge 76 capture, peroxidase-mAb detection; proBNP(1-108) 5,000 pg/ml
human BNP(1-32) (human) [19] = experiment: sandwich ELISA, L21016 capture, mAb detection; BNP(1-32) 20 pg/ml
[20] = molecular target: human proBNP(1-108), recombinant, produced in E. coli (non-glycosylated) (human) (UniProt P16860); experiment: sandwich ELISA, hinge 76 capture, peroxidase-mAb detection; proBNP(1-108) 1,250 pg/ml
human BNP(1-32) (human) [21] = experiment: sandwich ELISA, L21016 capture, mAb detection; BNP(1-32) 312.5 pg/ml
human BNP(1-32) (human) [22] = experiment: sandwich ELISA, L21016 capture, mAb detection; BNP(1-32) 0 pg/ml (blank)
human BNP(1-32) (human) [23] = experiment: sandwich ELISA, L21016 capture, BNP(1-32) 5 ng/ml; detection by 50B7 0.5 ug/ml alone (no 20G7)

human BNP(1-32) (human), sequence (peptide, as listed by the source): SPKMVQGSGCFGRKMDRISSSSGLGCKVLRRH
human proBNP(1-108), recombinant, produced in E. coli (non-glycosylated) (human), sequence (P16860 27-134): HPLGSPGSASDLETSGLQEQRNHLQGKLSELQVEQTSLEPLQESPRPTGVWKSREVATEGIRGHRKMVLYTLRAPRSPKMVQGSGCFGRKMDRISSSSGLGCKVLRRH

Row | optical density (OD) [1] | optical density (OD) at 490 nm (human BNP(1-32) (human) [2]) | optical density (OD) [3] | optical density (OD) at 490 nm (human BNP(1-32) (human) [4]) | optical density (OD) at 490 nm (human BNP(1-32) (human) [5]) | optical density (OD) [6] | optical density (OD) [7] | optical density (OD) at 490 nm (human BNP(1-32) (human) [8]) | optical density (OD) at 490 nm (human BNP(1-32) (human) [9]) | optical density (OD) [10] | optical density (OD) [11] | optical density (OD) at 490 nm (human BNP(1-32) (human) [12]) | optical density (OD) at 490 nm (human BNP(1-32) (human) [13]) | optical density (OD) [14] | optical density (OD) [15] | optical density (OD) [16] | optical density (OD) at 490 nm (human BNP(1-32) (human) [17]) | optical density (OD) [18] | optical density (OD) at 490 nm (human BNP(1-32) (human) [19]) | optical density (OD) [20] | Substance | also measured
1 | 0.069 OD | 0.056 OD | 0.035 OD | 0.052 OD | 0.068 OD | 0.055 OD | 0.044 OD | 0.071 OD | 0.077 OD | 0.056 OD | 0.052 OD | 0.055 OD | 0.067 OD | 0.22 OD | 0.07 OD | 0.056 OD | 0.059 OD | 0.117 OD | 0.068 OD | 0.068 OD | 24C5 monoclonal antibody (HyTest, Turku, Finland) | optical density (OD) at 490 nm (human BNP(1-32) (human) [21]): 0.063 OD; optical density (OD) at 490 nm (human BNP(1-32) (human) [22]): 0.071 OD
2 | 0.031 OD | 0.031 OD | 0.028 OD | 0.055 OD | 0.041 OD | 0.027 OD | 0.024 OD | 0.032 OD | 0.048 OD | 0.028 OD | 0.028 OD | 0.032 OD | 0.035 OD | 0.158 OD | 0.024 OD | 0.033 OD | 0.029 OD | 0.041 OD | 0.034 OD | 0.024 OD | 26E2 monoclonal antibody (HyTest, Turku, Finland) | optical density (OD) at 490 nm (human BNP(1-32) (human) [21]): 0.027 OD; optical density (OD) at 490 nm (human BNP(1-32) (human) [22]): 0.022 OD
3 |  |  |  |  |  |  |  |  |  |  |  |  |  |  |  |  |  |  |  |  | 50B7 monoclonal antibody (HyTest, Finland) | Optical Density 490 nm (human BNP(1-32) (human) [23]): 1.3 OD

From patent publication US20170023592A1
